This passage reports Kd results from PMC7610802 (The Journal of allergy and clinical immunology, 2019).

For the assay, the target named is T1, mouse soluble ST2 (sST2) (mouse, UniProt P14719-2 27-337, N-linked glycans (shown by PNGase F)).
T1 sequence: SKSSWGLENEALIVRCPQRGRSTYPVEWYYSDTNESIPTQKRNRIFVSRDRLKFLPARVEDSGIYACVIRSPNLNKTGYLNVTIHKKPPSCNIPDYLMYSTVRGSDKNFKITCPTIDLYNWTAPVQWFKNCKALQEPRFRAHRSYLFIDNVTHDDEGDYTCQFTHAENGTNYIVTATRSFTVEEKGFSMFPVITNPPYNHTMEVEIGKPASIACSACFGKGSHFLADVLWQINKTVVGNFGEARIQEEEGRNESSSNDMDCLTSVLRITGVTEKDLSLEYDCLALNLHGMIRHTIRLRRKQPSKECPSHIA
The assay is described as follows: ITC. (In ITC the heat of successive injections is recorded.)

B1: mouse IL-33 (residues 109-266) (ligand)
chain: SIQGTSLLTQSPASLSTYNDQSVSFVLENGCYVINVDDSGKDQEQDQVLLRYYESPCPASQSGDGVDGKKLMVNMSPIKDTDIWLHANDKDYSVELQRGDVSPPEQAFFVLHKKSSDFVSFECKNLPGTYIGVKDNQLALVEEKDESCNNIMFKLSKI
For orientation: Kd means the concentration at which binding is half-saturated. Read a high Kd as lower affinity. Molecule B1 yielded a Kd of 4.59 nM.
